In assay [1] the target is wild-type rat mu opioid receptor (rat). Nature of the assay: cell-based or functional assay.
Assay [2] concerns the target Asn150Ala mutant rat mu opioid receptor (rat). Nature of the assay: cell-based or functional assay.

Take “[D-Ala2-MePhe4, Gly-ol5]enkephalin (peptide)”: the Average Ligand Stimulated Activity (Light Emission), SRE-Luc + Gq5i luciferase reporter in HEK293 cells (light emission) stood at 87500 in assay [1] and 87000 in assay [2].

These data come from patent US20020127539A1, “Assays for identifying receptors having alterations in signaling” (priority 2000, published 2002).
